# Assay results: publication PMC3515076
# T1: RIG-I (ΔCARDs 1-238) (human, UniProt O95786 239-925, del1-238)
# T1 sequence: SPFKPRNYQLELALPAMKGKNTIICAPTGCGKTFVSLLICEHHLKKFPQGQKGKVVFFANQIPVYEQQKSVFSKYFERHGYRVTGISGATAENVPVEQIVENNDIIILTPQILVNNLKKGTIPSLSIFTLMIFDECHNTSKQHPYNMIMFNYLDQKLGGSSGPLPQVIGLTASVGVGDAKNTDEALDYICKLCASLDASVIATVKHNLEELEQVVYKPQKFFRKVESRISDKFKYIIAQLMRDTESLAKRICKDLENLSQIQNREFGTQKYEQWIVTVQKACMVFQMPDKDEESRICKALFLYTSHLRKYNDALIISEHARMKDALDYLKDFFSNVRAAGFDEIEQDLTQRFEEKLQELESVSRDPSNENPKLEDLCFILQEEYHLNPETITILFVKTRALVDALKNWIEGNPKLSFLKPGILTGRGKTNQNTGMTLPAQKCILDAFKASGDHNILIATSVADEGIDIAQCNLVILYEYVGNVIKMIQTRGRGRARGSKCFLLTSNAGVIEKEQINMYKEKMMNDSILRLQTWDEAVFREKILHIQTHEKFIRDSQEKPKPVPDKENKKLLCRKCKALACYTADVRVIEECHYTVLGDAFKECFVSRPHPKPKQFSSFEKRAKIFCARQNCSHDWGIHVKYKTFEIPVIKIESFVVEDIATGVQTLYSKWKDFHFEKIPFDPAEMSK
# B1: 5'ppp8L (structured_RNA)
# RNA: GGCGCGGCUUCGGCCGCGCC
# modifications: 5' triphosphate
# Biological target: T1, RIG-I (ΔCARDs 1-238)
# Experiment: X-ray crystallography
binder,measurement,value
B1,binding result,binds
